US20200283528A1
Where a chain is given by its changes, count along the chain named.

B1: PRO1430 (scDb-scFv: 37-20-B03 sc01 / 38-02-A04 sc013 / 19-01-H04 sc03) (protein, from a related filing)
chain: DIQMTQSPSSLSASVGDRVTITCQASQSIGTYLAWYQQKPGKAPKLLIYRAFILASGVPSRFSGSGSGTDFTLTISSLQPEDFATYYCQSNFYSDSTTIGPNAFGTGTKVTVLGGGGGSEVQLVESGGGLVQPGGSLRLSCAASGFSFSNSYWICWVRQAPGKCLEWIGCTFVGSSDSTYYANWAKGRFTISRDNSKNTVYLQMNSLRAEDTAVYYCARHPSDAVYGYANNLWGQGTLVTVSSGGGGSGGGGSGGGGSGGGGSIQMTQSPSSLSASVGDRVTITCQASQSINNVLAWYQQKPGKAPKLLIYRASTLASGVPSRFSGSGSGTDFTLTISSLQPEDFATYYCQSSYGNYGDFGCGTKVTVLGGGGGSQVQLQESGPGLVKPSETLSLTCKVSGFSFNSDYWIYWIRQPPGKGLEWIGSIYGGSSGNTQYASWAQGRVTISVDSSKNQFSLKLSSVTAADTAVYYCARGYVDYGGATDLWGQGTLVTVSSGGGGSGGGGSIQMTQSPSSLSASVGDRVTITCQSSESVYSNNQLSWYQQKPGQPPKLLIYDASDLASGVPSRFSGSGSGTDFTLTISSLQPEDFATYYCAGGFSSSSDTAFGGGTKLTVLGGGGGSGGGGSGGGGSGGGGSEVQLVESGGGLVQPGGSLRLSCAASGFSLSSNAMGWVRQAPGKGLEYIGIISVGGFTYYASWAKGRFTISRDNSKNTVYLQMNSLRAEDTATYFCARDRHGGDSSGAFYLWGQGTLVTVSS
B2: PRO1476 (scDb-scFv: 33-03-G02 sc03 / 38-02-A04 sc013 / 19-01-H04 sc03) (protein, from a related filing)
chain: DIQMTQSPSSLSASVGDRVTITCQASQSINNVLAWYQQKPGKAPKLLIYRASTLASGVPSRFSGSGSGTDFTLTISSLQPEDFATYYCQSSYGNYGDFGCGTKVTVLGGGGGSQSQLQESGPGLVKPSETLSLTCKASGFSFSSGYDMCWVRQPPGKGLEWIACVVAGSVDITYYASWAKGRVTISKDSSKNQVSLKLSSVTAADTAVYFCARKDAYSDAFNLWGQGTLVTVSSGGGGSGGGGSGGGGSGGGGSFQLTQSPSSLSASVGDRVTITCQASQSINDYLAWYQQKPGKSPKLLIYKASTLASGVPSRFSGSGSGTDFTLTISSLQPEDFATYYCQQGYIITDIDNVFGTGTKVTVLGGGGGSEVQLVESGGGLVQPGGSLRLSCAASGFSFSNSYWICWVRQAPGKCLEWIGCTFVGSSDSTYYANWAKGRFTISRDNSKNTVYLQMNSLRAEDTAVYYCARHPSDAVYGYANNLWGQGTLVTVSSGGGGSGGGGSIQMTQSPSSLSASVGDRVTITCQSSESVYSNNQLSWYQQKPGQPPKLLIYDASDLASGVPSRFSGSGSGTDFTLTISSLQPEDFATYYCAGGFSSSSDTAFGGGTKLTVLGGGGGSGGGGSGGGGSGGGGSEVQLVESGGGLVQPGGSLRLSCAASGFSLSSNAMGWVRQAPGKGLEYIGIISVGGFTYYASWAKGRFTISRDNSKNTVYLQMNSLRAEDTATYFCARDRHGGDSSGAFYLWGQGTLVTVSS
B3: PRO1432 (scDb-scFv: 33-03-G02 sc18 / 38-02-A04 sc013 / 19-01-H04 sc03) (protein, from a related filing)
chain: B2 chain with S115V, F210Y, F255I, L257M, S296A
B4: PRO1431 (scDb-scFv: 33-03-G02 sc18 / 38-02-A04 sc013 / 19-01-H04 sc03) (protein, from a related filing)
chain: DIQMTQSPSSLSASVGDRVTITCQASQSINDYLAWYQQKPGKAPKLLIYKASTLASGVPSRFSGSGSGTDFTLTISSLQPEDFATYYCQQGYIITDIDNVFGTGTKVTVLGGGGGSEVQLVESGGGLVQPGGSLRLSCAASGFSFSNSYWICWVRQAPGKCLEWIGCTFVGSSDSTYYANWAKGRFTISRDNSKNTVYLQMNSLRAEDTAVYYCARHPSDAVYGYANNLWGQGTLVTVSSGGGGSGGGGSGGGGSGGGGSIQMTQSPSSLSASVGDRVTITCQASQSINNVLAWYQQKPGKAPKLLIYRASTLASGVPSRFSGSGSGTDFTLTISSLQPEDFATYYCQSSYGNYGDFGCGTKVTVLGGGGGSQVQLQESGPGLVKPSETLSLTCKASGFSFSSGYDMCWVRQPPGKGLEWIACVVAGSVDITYYASWAKGRVTISKDSSKNQVSLKLSSVTAADTAVYYCARKDAYSDAFNLWGQGTLVTVSSGGGGSGGGGSIQMTQSPSSLSASVGDRVTITCQSSESVYSNNQLSWYQQKPGQPPKLLIYDASDLASGVPSRFSGSGSGTDFTLTISSLQPEDFATYYCAGGFSSSSDTAFGGGTKLTVLGGGGGSGGGGSGGGGSGGGGSEVQLVESGGGLVQPGGSLRLSCAASGFSLSSNAMGWVRQAPGKGLEYIGIISVGGFTYYASWAKGRFTISRDNSKNTVYLQMNSLRAEDTATYFCARDRHGGDSSGAFYLWGQGTLVTVSS
B5: PRO1473 (scDb-scFv: 33-03-G02 sc03 / 38-02-A04 sc013 / 19-01-H04 sc03) (protein, from a related filing)
chain: B4 chain with I2F, M4L, A43S, V374S, Y469F
B6: PRO1479 (scDb-scFv: 37-20-B03 sc09.1 / 38-02-A04 sc013 / 19-01-H04 sc03) (protein, from a related filing)
chain: DIQMTQSPASLSASVGDRVTITCQASQSIGTYLAWYQQKPGKPPKLLIYRAFILASGVPSRFSGSGSGTDFTLTISSLQPEDFATYYCQSNFYSDSTTIGPNAFGTGTKVTVLGGGGGSEVQLVESGGGLVQPGGSLRLSCAASGFSFSNSYWICWVRQAPGKCLEWIGCTFVGSSDSTYYANWAKGRFTISRDNSKNTVYLQMNSLRAEDTAVYYCARHPSDAVYGYANNLWGQGTLVTVSSGGGGSGGGGSGGGGSGGGGSIQMTQSPSSLSASVGDRVTITCQASQSINNVLAWYQQKPGKAPKLLIYRASTLASGVPSRFSGSGSGTDFTLTISSLQPEDFATYYCQSSYGNYGDFGCGTKVTVLGGGGGSEVQLVESGGGLVQPGGSLRLSCAASGFSFNSDYWIYWVRQAPGKGLEWIASIYGGSSGNTQYASWAQGRFTISRDNSKNTVYLQMNSLRAEDTAVYFCARGYVDYGGATDLWGQGTLVTVSSGGGGSGGGGSIQMTQSPSSLSASVGDRVTITCQSSESVYSNNQLSWYQQKPGQPPKLLIYDASDLASGVPSRFSGSGSGTDFTLTISSLQPEDFATYYCAGGFSSSSDTAFGGGTKLTVLGGGGGSGGGGSGGGGSGGGGSEVQLVESGGGLVQPGGSLRLSCAASGFSLSSNAMGWVRQAPGKGLEYIGIISVGGFTYYASWAKGRFTISRDNSKNTVYLQMNSLRAEDTATYFCARDRHGGDSSGAFYLWGQGTLVTVSS
B7: PRO1482 (scDb-scFv: 37-20-B03 sc09.1 / 38-02-A04 sc013 / 19-01-H04 sc03) (protein, from a related filing)
chain: DIQMTQSPSSLSASVGDRVTITCQASQSINNVLAWYQQKPGKAPKLLIYRASTLASGVPSRFSGSGSGTDFTLTISSLQPEDFATYYCQSSYGNYGDFGCGTKVTVLGGGGGSEVQLVESGGGLVQPGGSLRLSCAASGFSFNSDYWIYWVRQAPGKGLEWIASIYGGSSGNTQYASWAQGRFTISRDNSKNTVYLQMNSLRAEDTAVYFCARGYVDYGGATDLWGQGTLVTVSSGGGGSGGGGSGGGGSGGGGSIQMTQSPASLSASVGDRVTITCQASQSIGTYLAWYQQKPGKPPKLLIYRAFILASGVPSRFSGSGSGTDFTLTISSLQPEDFATYYCQSNFYSDSTTIGPNAFGTGTKVTVLGGGGGSEVQLVESGGGLVQPGGSLRLSCAASGFSFSNSYWICWVRQAPGKCLEWIGCTFVGSSDSTYYANWAKGRFTISRDNSKNTVYLQMNSLRAEDTAVYYCARHPSDAVYGYANNLWGQGTLVTVSSGGGGSGGGGSIQMTQSPSSLSASVGDRVTITCQSSESVYSNNQLSWYQQKPGQPPKLLIYDASDLASGVPSRFSGSGSGTDFTLTISSLQPEDFATYYCAGGFSSSSDTAFGGGTKLTVLGGGGGSGGGGSGGGGSGGGGSEVQLVESGGGLVQPGGSLRLSCAASGFSLSSNAMGWVRQAPGKGLEYIGIISVGGFTYYASWAKGRFTISRDNSKNTVYLQMNSLRAEDTATYFCARDRHGGDSSGAFYLWGQGTLVTVSS

biological target: human PDL1 (recombinant, soluble) (human) (UniProt Q9NZQ7); test: PDL1/B7-1 competition ELISA; B7-1 coated, biotinylated PDL1 40 ng/ml

Row | IC50 [ng/mL] | rel. IC50 (IC50, Avelumab/IC50, test molecule) | Binder
1 | 2.42 | 1.15 | B1
2 | 9.49 | 1.1 | B2
3 | 2.83 | 0.99 | B3
4 | 3.31 | 0.84 | B4
5 | 8.89 | 1.49 | B5
6 | 10.7 | 1.38 | B6
7 | 8.18 | 1.51 | B7

biological target: human CD137-Fc chimeric protein (human) (UniProt Q07011); test: SPR Biacore T200; CD137-Fc captured; molecule as analyte

Row | Kd [nM] | koff [s⁻¹] | kon [M⁻¹ s⁻¹] | Binder
8 | 1.5 | 0.00071 | 460000 | B1
9 | 1.1 | 0.00037 | 350000 | B2
10 | 0.75 | 0.00045 | 600000 | B3
11 | 1.7 | 0.00075 | 450000 | B4
12 | 2 | 0.0006 | 310000 | B5
13 | 1.7 | 0.00054 | 330000 | B6
14 | 1.1 | 0.00036 | 320000 | B7

biological target: human PDL1 (recombinant, soluble) (human) (UniProt Q9NZQ7); test: PDL1/PD-1 competition ELISA; PD-1 coated, biotinylated PDL1 1 ng/ml

Row | IC50 [ng/mL] | rel. IC50 (IC50, Avelumab/IC50, test molecule) | Binder
15 | 1.92 | 0.73 | B1
16 | 2.84 | 0.8 | B2
17 | 3.26 | 0.43 | B3
18 | 2.75 | 0.51 | B4
19 | 4.14 | 0.56 | B5
20 | 2.65 | 0.86 | B6
21 | 1.78 | 1.24 | B7

biological target: Fc tagged human PDL1 (human) (UniProt Q9NZQ7); test: SPR Biacore T200; PDL1-Fc captured; molecule 0.12-90 nM

Row | Kd [nM] | koff [s⁻¹] | kon [M⁻¹ s⁻¹] | Binder
22 | 0.0045 | 2.4e-05 | 5.3e+06 | B1
23 | 0.009 | 3.1e-05 | 3.4e+06 | B2
24 | 0.011 | 4.4e-05 | 4.2e+06 | B3
25 | 0.014 | 4.5e-05 | 3.3e+06 | B4
26 | 0.0082 | 2.9e-05 | 3.6e+06 | B5
27 | 0.0092 | 3.9e-05 | 4.2e+06 | B6
28 | 0.0098 | 3.3e-05 | 3.4e+06 | B7

biological target: human PDL1 expressed on cells (human) (UniProt Q9NZQ7); test: cell-based or functional assay

Row | NF-AT potency assay IC50 (with HSA) [ng/mL] | NF-AT potency assay rel. IC50 (IC50, Avelumab/IC50, test molecule) (with HSA) | Binder
29 | 16.2 | 1.45 | B1
30 | 53.5 | 0.66 | B2
31 | 18.5 | 1.98 | B3
32 | 9.83 | 3.73 | B4
33 | 35.2 | 1.11 | B5
34 | 50.4 | 1.04 | B6
35 | 54.8 | 0.68 | B7
